{"source": "patent US20220280440A1", "about": "“METHOD FOR THE MANUFACTURE OF A DOSAGE FORM WITH MUCOADHESIVE PROPERTIES FOR BUCCAL ADMINISTRATION OF BIOLOGICS” (UNIVERSIDAD DE CHILE, priority 2016, published 2022)", "key": {"[1]": {"test": "Effect of the inkjet printing process on nanosystems (properties before and after printing on inert substrate)", "assay_type": "physicochemical", "conditions": "lysozyme in nanoparticles", "method": "The process of printing on an inert substrate using a suspension with a nanosystem as carriers of biologic drug models was performed using polymeric nanoparticles. The suspension was incorporated into a cartridge for inkjet printing. The particle properties were measured before and after the printing process. […] Results are expressed as means (standard deviation). Except for an increase in the polydispersity index (PDI), the particles maintain their properties during the printing process and define the methodology for incorporating drug loaded nanoparticles on polymer films.\nThe obtained printing inks with lysozyme or insulin were loaded into Hewlett Packard cartridges compatible with Hewlett Packard Deskjet 1000 printer, and it was installed to run the printing experiments. Using a commercial software tool appropriate for the task, surfaces of 3×3 cm^2 were printed on an inert substrate to evaluate the effect of the printing process on the polymeric nanoparticles. After the printing process, the printed polymeric nanoparticles were recovered by refluxing with 1 mL of Milli-Q® water, and their physicochemical properties in terms of size, polydispersity index, and zeta potential were determined."}, "[2]": {"test": "FTIR of lysozyme inks with or without glycerol", "assay_type": "physicochemical", "conditions": "FIG. 13", "method": "On the other hand, since these inks require the addition of glycerol as a viscosity agent, the evaluation of lysozyme inks was performed with or without glycerol by infrared spectroscopy Fourier transform (FTIR)."}}}
{"substance": "lysozyme", "values": [{"measurement": "Amount immobilized at the particle and biologic structure during the printing process (load and protein activity studies)", "setting": "[1]", "result": "preserved during the printing process"}, {"measurement": "Major bands of the FTIR spectra, ink with or without glycerol", "setting": "[2]", "result": "does not change during the process"}]}
